Measured values reported in article doi:10.1101/2021.03.15.435440 (bioRxiv, 2021).

Target: SARS-CoV-2 spike (6P) (SARS-CoV-2, Wuhan-Hu-1 reference, UniProt P0DTC2, stabilised)
Test: cryo-EM structure

B1: Ab16 Fab (Fab, V domains shown)
VH: EVQLQQSGPELVKPGASVKISCKASGYSFNNYYMNWVKQSPEKSLEWIGEINPNSGYTSYNQKFRAKATLTVDKSSTTAYMQLKSLTSEDSAVYYCARYFGNLFAMDFWGQGTSVTVS
VL: DILMTQSPSSMSVSLGDTVSITCHASQGIGSNIGWLQQKPGKSFKGLIYLGTNLEDGVPSRFSGSGSGADYSLTISSLESEDFADYYCVQYVQFPYTFGGGTKLEIK
B1: binds.
